{"source": "patent US9040266B2", "about": "“Cell-based systems for production of methyl formate” (The Regents of the University of California, priority 2009, dated 2015)", "data": [{"system": "methyl bromide and methyl iodide production in E. Coli", "assay": "Methyl halide production by heterologous MHTs expressed in E. coli (Example 8, headspace GC/MS)", "assay_type": "cell-based", "conditions": "165 mM NaX, 100 uM IPTG, 1.5 hours, FIG. 7", "experimental": "(§1) Nineteen methyl halide transferase genes from various organisms were codon-optimized and introduced into E. Coli. Production of methyl bromide and methyl iodide was determined for each. […] Group II UBA; Cryptococcus neoformans var. neoformans JEC21; Oryza sativa (japonica cultivar-group); Ostreococcus tauri; Dechloromonas aromatica RCB; Coprinopsis cinerea okayama; Robiginitalea bofirmata HTCC2501; Maricaulis maris MCS10; Flavobacteria bacterium BBFL7; Vitis vinifera and; halorhodospira halophila SL1.\n(§2) For each strain a single colony was picked and grown overnight (10-14 hrs) in 20 mL of LB miller in a 30 mL glass test tube with aeration (a loose cap) at 37 C and 250 rpm shaking. The culture was spun down in a swinging bucket centrifuge for 5 min @ 3000×g. The cells were resuspended in 20mL of appropriate media (10 g/L Tryptone, 5 g/L Yeast Extract, 165 mM NaX [where X=CI, Br, I]) containing 100 uM IPTG inducer. The cells were sealed with rubber stoppers and parafilm and grown at 37 C with 250 rpm shaking for 1.5 hours. Cultures were taken to the GC/MS and 100 uL of headspace gas was sampled and loaded onto the column. The method run was VOIGT.m. The number of counts for the appropriate mass (MeCl, MeBr, MeI) were reported. Cells were always grown in the presence of 30 ug/mL chloramphenicol.\n(§3) Methyl halide production was measured as described in the previous Examples. […] C. neoformans JEC21 gave the best methyl bromide and methyl iodide production. Leptospirillum gave the best methyl iodide production.", "values": [{"molecule": "Leptospirillum: methyl halide transferase from Leptospirillum sp. Group II UBA, SEQ ID NO: 11 (protein, Leptospirillum species, synthetic polypeptide of methyl halide transferase thereof) MPDKIFWNQRYLDKNTGWDLGQPAPPFVRLVEKGEFGPPGRVLIPGAGRSYEGIFLASRGYDVTCVDFAPQAVREAREAARQAGVKLTVVEEDFFRLDPRTIGVFDYLVEHTCFCAIDPPMRQAYVDQSHALLAPGGLLIGLFYAHGREGGPPWTTTEEEVRGLFGKKFDLLSLGLTDWSVDSRKGEELLGRLRRKNDRIE", "methyl iodide production": "best"}, {"molecule": "C. neoformans JEC21: methyl halide transferase (hypothetical protein) from Cryptococcus neoformans var. neoformans JEC21, SEQ ID NO: 12 (protein, Cryptococcus neoformans) MAQASGDDNAWEERWAQGRTAFDQSAAHPVFVKFLKSDIARELGVPKSGKALVPGCGRGYDVHLLASTGLDAIGLDLAPTGVEAARRWIGSQPSTSGKADILVQDFFTYDPLEKFDLIYDYTFLCALPPSLRQEWARQTTHLANIAADTNPILITLMYPLPPSAKSGGPPFALSEEIYQELLKEQGWKMVWSEDIEEPTRMVGAPGGEKLAVWKRI", "methyl bromide production": "best", "methyl iodide production": "best"}, {"molecule": "B. phymatum: methyl halide transferase from Burkholderia phymatum STM815, SEQ ID NO: 4 (protein, listed as Burkholderia phymatum) MSDKRPSVPPSAPDFENRDPNAPGFWDERFGRGFTPWDQAGVPPAFKAFVERHSPVPVLIPGCGSAYEARWLAEKGWTVRAIDFAPNAVEAARAQLGSHASLVHEADFFTYRPPFDPGWIYERAFLCALPPARRSDWVARMAQLLSPGGLLAGFFFIGATEKGPPFGIERAELDALMSPDFTLVEDEPVDDSIAVFAGRERWLTWRRRGAARG", "methyl bromide production": "best"}]}, {"system": "methyl bromide and methyl iodide production in E. Coli", "assay": "Methyl halide production by heterologous MHTs expressed in E. coli (Example 8, headspace GC/MS)", "assay_type": "cell-based", "conditions": "FIG. 7", "experimental": "as §1, §2, §3", "values": [{"molecule": "MM: methyl halide transferase from Maricaulis maris MCS10, SEQ ID NO: 18 (protein, listed as Maricaulis maris) MTHDENRSAFDWEARFIDGNTPWERGALHPAFEAWQHQSAFAAGDRALIPGCGRSPELLALAQAGLAVTGADLSGTAMAWQRKLFADAGQQVELITGDVFDWQPQQALDLVYEQTFLCAIHPRLRTRYEEALARWLKPGGRLYALFMQKPERGGPPFDCALDAMRALFPAERWTWPAEADIQPWPHPQLNGKAELGAVLIRR", "methyl halide transferase activity": "insignificant activity"}, {"molecule": "AT-2: methyl halide transferase from Arabidopsis thaliana TM2, SEQ ID NO: 10 (protein, listed as Arabidopsis thaliana) MAEEQQNSDQSNGGNVIPTPEEVATFLHKTVEEGGWEKCWEEEITPWDQGRATPLIVHLVDTSSLPLGRALVPGCGGGHDVVAMASPERFVVGLDISESALAKANETYGSSPKAEYFSFVKEDVFTWRPTELFDLIFDYVFFCAIEPEMRPAWAKSMYELLKPDGELITLMYPITDHVGGPPYKVDVSTFEEVLVPIGFKAVSVEENPHAIPTRQREAGKVEEDQLIPKKEILLFGKSVICVIYKE", "methyl halide transferase activity": "insignificant activity"}, {"molecule": "D. aromatica: methyl halide transferase from Dechloromonas aromatica RCB, SEQ ID NO: 15 (protein, listed as Dechloromonas aromatica) MSETIKPPEQRPEHPDFWCKRFGEGVTPWDAGKVPMAFVDFVGAQTTPLNSLIPGCGSAWEAAHLAELGWPVTALDFSPLAIEKAREVLGDSPVKLVCADFFTFAPRQPLDLIYERAFLCALPRKLWADWGKQVAELLPSGARLAGFFFLCDQPKGPPFGILPAQLDELLRPNFELIEDQPVGDSVPVFAGRERWQVWRRR", "halide specificity of methyl halide production": "significant specificity for methyl iodide production"}, {"molecule": "C. cinerea: methyl halide transferase (hypothetical protein) from Coprinopsis cinerea okayama, SEQ ID NO: 16 (protein, Synthetic polypeptide of hypothetical protein of coprinopsis cinerea.) MADPNLAPEIRAKMQEIFKPDDRHSWDLLWKENITPWDAGDAQPSLIELIEESGLDFARKGRALVPGCGTGYDAVYLASALGLQTIGMDISESAVEAANRYRDSSGVQGADRAIFQKADFFTYKVPDEERFDLIMDHTFFCAIHPSLRPEWGQRMSELIKPGGYLITICFPMIPKVETGPPYYLRPEHYDEVLKETFEKVYDKVPTKSSENHKDKERMLVWKKK", "halide specificity of methyl halide production": "significant specificity for methyl iodide production"}, {"molecule": "HH: methyl halide transferase from Halorhodospira halophila SL1, SEQ ID NO: 21 (protein, listed as Halorhodospira halophila) MSGDPDPRRAPWEARWREGRTGWDRGGVSPTLEAWLSAGVIPGRRVLVPGAGRGYEVEALARRGYKVTAVDIAAEACQQLRDGLDAAGVEARVVQADLLAWQPDTPFDAVYEQTCLCALDPADWPAYEQRLYGWLRPGGVLLALFMQTGASGGPPFHCALPEMATLFDSERWQWPAEPPRQWPHPSGRWEEAVRLLRR", "methyl halide transferase activity": "insignificant activity"}, {"molecule": "VV: methyl halide transferase from Vitis vinifera, SEQ ID NO: 20 (protein, listed as Vitis vinifera) MASPDNTKPKARSSESVTGQRRGRRPSDRHWPCVGEESGSFYNTIADGERQYQHRIELRASKNKPSSWEEKWQQGLTPWDLGKATPIIEHLHQAGALPNGRTLIPGCGRGYDVVAIACPERFVVGLDISDSAIKKAKESSSSSWNASHFIFLKADFFTWNPTELFDLIIDYTFFCAIEPDMRPAWASRMQQLLKPDGELLTLMFPISDHTGGPPYKVSIADYEKVLHPMRFKAVSIVDNEMAIGSRKKKYPLKPDLSLFGFVDRPKRAYEARSEEFRISDWVCGWMGLCVPSGRISGGVCGLLSGRSLTWAKNLGVSTTQLRMSNNGSSIESNPKVQKLNQIIGSDSAGGWEKSWQQGHTPWDLGKPTPIIQHLHQTGTLPSGKTLVPGCGCGYDVVTIACPERFVVGLDISDSAIKKAKEISDHAGGPPYKVSVADYEEVLHPMGFKAVSIVDNKMAIGPRKGREKLGRWKRTPSKSLL", "methyl halide transferase activity": "insignificant activity"}, {"molecule": "O. tauri: methyl halide transferase (unnamed protein product) from Ostreococcus tauri, SEQ ID NO: 14 (protein, listed as Ostreococcus tauri) MTTSSAPTRHTSMRVALAAPATVTRRLGTYKRVFDRRAMSTRAIDGAVTSNAGDFARQDGSTDWEGMWSRGITKGAAFDCSRTEPAFQNALDAKEIAIGSGRALVPGCGRGYALASLARAGFGDVVGLEISETAKEACEEQLKAESIPETARVEVVVADFFAYDPKEAFDAAYDCTFLCAIDPRRREEWARKHASLIKPGGTLVCLVFPVGDFEGGPPYALTPEIVRELLAPAGFEEIELRETPAEMYARGRLEYLFTWRRRS", "halide specificity of methyl halide production": "significant specificity for methyl iodide production"}, {"molecule": "Brassica rapa subsp. chinensis: methyl halide transferase from Brassica rapa subsp. chinensis, SEQ ID NO: 6 (protein, listed as Brassica rapa) MAEVQQNSAHINGENIIPPEDVAKFLPKTVEEGGWEKCWEDGVTPWDQGRATPLVVHLVESSSLPLGRALVPGCGGGHDVVAMASPERYVVGLDISESALEKAAETYGSSPKAKYFTFVKEDFFTWRPNELFDLIFDYVVFCAIEPETRPAWAKAMYELLKPDGELITLMYPITDHDGGPPYKVAFSTYEDVLVPVGFKAVSIEENPYSIATRKGKEKLARWKKIN", "halide specificity of methyl halide production": "significant specificity for methyl bromide production"}, {"molecule": "O. sativa: methyl halide transferase from Oryza sativa (japonica cultivar-group), SEQ ID NO: 13 (protein, listed as Oryza sativa) MASAIVDVAGGGRQQALDGSNPAVARLRQLIGGGQESSDGWSRCWEEGVTPWDLGQRTPAVVELVHSGTLPAGDATTVLVPGCGAGYDVVALSGPGRFVVGLDICDTAIQKAKQLSAAAAAAADGGDGSSSFFAFVADDFFTWEPPEPFHLIFDYTFFCALHPSMRPAWAKRMADLLRPDGELITLMYLAEGQEAGPPFNTTVLDYKEVLNPLGLVITSIEDNEVAVEPRKGMEKIARWKRMTKSD", "halide specificity of methyl halide production": "significant specificity for methyl iodide production"}, {"molecule": "RB: methyl halide transferase from Robiginitalea bofirmata HTCC2501, SEQ ID NO: 17 (protein, listed as Robiginitalea biformata) MTDLDRDFWEDRYRAGTDRWDLGGPSPPLTAYIDGLTDQELRILVPGAGRGYEAEYLYRAGFENLTIVDLARRPLDDLRRRLPELPAAALQQTDFFSFRGGPFDLILEHTFFCALPPARRPDYVQAMHRLLVPGGRLAGLFFDFPLTEDGPPFGGSETEYRNRFSSLFHIRKLERARNSIPPRAGTELFFIFEKK", "methyl halide transferase activity": "insignificant activity"}, {"molecule": "FB: methyl halide transferase from Flavobacteria bacterium BBFL7, SEQ ID NO: 19 (protein, listed as Flavobacteria bacterium) MPLNKQYWEDRYKNNSTGWDLGIISTPIKEYVNQLENKNSKILIPGAGNAHEATYLVKNGFKNIFILDIALSPLKFAKQRSKLPEEHLIQQDFFDHKGSYDLIIEQTFFCALEPRFRESYVKKIHMLLRDQGCLIGVLFNFENNLSSPPFGGSINEYLNLFEPYFEIVTMEPCNNSVIERQGKEIFIKLKKKK", "methyl halide transferase activity": "insignificant activity"}]}]}
